Experimental data published in paper PMC12449053, “Cortolezzis Ylenia Formal analysis Investigation Methodology Department of Medicine, Laboratory of Biochemistry, University of Udine, 33100 Udine, Italy”.

Legend:
GST-hnRNPA1 [1] = target: T1, GST-hnRNPA1 (UniProt P09651 1-372); assay: EMSA; 10-fold molar excess of protein; EMSA: 50 mM Tris-HCl pH 7.4, 50 mM KCl, 1 mM EDTA, 1 mM Na3VO4, 5 mM NaF, 1 mM DTT, 8% glycerol, 25 C, 30 nM RNA; ITC: 10 mM KPi, 50 mM KCl, 25 C, 8 uM UP1; settings: protein: recombinant; tags: GST (N-terminal, pGEX4T1); unable to form rG4
T1 sequence (P09651 whole entry): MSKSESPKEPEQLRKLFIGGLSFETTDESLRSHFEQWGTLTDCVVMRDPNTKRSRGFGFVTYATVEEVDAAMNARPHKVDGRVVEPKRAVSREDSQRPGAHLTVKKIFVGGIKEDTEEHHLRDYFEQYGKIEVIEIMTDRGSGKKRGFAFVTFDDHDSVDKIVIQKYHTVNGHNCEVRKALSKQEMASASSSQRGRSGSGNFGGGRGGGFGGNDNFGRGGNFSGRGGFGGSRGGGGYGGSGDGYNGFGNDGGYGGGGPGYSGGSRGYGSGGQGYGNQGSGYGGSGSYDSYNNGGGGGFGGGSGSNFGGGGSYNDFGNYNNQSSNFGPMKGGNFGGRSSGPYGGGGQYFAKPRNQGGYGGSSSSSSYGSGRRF

UP1 = UP1 (UniProt P09651 1-196); assay: ITC; 50 mM KCl; one-site fit, Kd not in material; EMSA: 50 mM Tris-HCl pH 7.4, 50 mM KCl, 1 mM EDTA, 1 mM Na3VO4, 5 mM NaF, 1 mM DTT, 8% glycerol, 25 C, 30 nM RNA; ITC: 10 mM KPi, 50 mM KCl, 25 C, 8 uM UP1; settings: protein: recombinant; tags: none (GST removed by PreScission); rG4, two stacked G-tetrads
UP1, sequence (P09651 1-196): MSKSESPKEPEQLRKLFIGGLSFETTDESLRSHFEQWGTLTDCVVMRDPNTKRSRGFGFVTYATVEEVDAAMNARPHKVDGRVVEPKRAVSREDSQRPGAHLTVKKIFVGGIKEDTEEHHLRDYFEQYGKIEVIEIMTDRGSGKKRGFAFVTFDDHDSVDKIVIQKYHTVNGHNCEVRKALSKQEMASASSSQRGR

GST-hnRNPA1 [2] = target: T1, GST-hnRNPA1; assay: EMSA; 50 mM KCl; bound at 1:1 ratio; EMSA: 50 mM Tris-HCl pH 7.4, 50 mM KCl, 1 mM EDTA, 1 mM Na3VO4, 5 mM NaF, 1 mM DTT, 8% glycerol, 25 C, 30 nM RNA; ITC: 10 mM KPi, 50 mM KCl, 25 C, 8 uM UP1; settings: protein: recombinant; tags: GST (N-terminal, pGEX4T1); label: Cy5.5 5'; rG4

B1: 41-mer 5'UTRmut (ssRNA)
RNA: GCAGCGCCAGCCGCAGUCGCGUCCGCGAACGUAGCCGCCGC
**Q.** Does B1 bind (GST-hnRNPA1 [1])?
**A.** Result: no binding

B2: utr-c (structured_RNA)
RNA: GGUGGCGGCGG
**Q.** Does B2 bind (UP1)?
**A.** Result: binds

B3: 41-mer 5'UTR (utr-c + utr-z) (structured_RNA)
RNA: GCAGCGGCGGCGGCAGUGGCGGCGGCGAAGGUGGCGGCGGC
**Q.** Does B3 bind (GST-hnRNPA1 [2])?
**A.** Result: binds
